Several values for one entry are separate records, joined by “and”; a condition that tells them apart may be missing. Equal entries are not always repeated. Where two headings read alike, the source gives them in different places.
Legend:
[1] = biological target: CRF250-SOSIP, soluble HIV-1 envelope glycoprotein trimer (SOSIP.v7 based on the CRF250 HIV-1 isolate) (HIV-1); assay: flow cytometry of edited Jeko-1 cells, HDRT by AAV, double staining with CRF250 SOSIP-APC and CRF250 SOSIP-PE
[2] = biological target: CRF250-SOSIP, soluble HIV-1 envelope glycoprotein trimer (SOSIP.v7 based on the CRF250 HIV-1 isolate) (HIV-1); assay: flow cytometry of edited Jeko-1 cells, HDRT as dsDNA, double staining with CRF250 SOSIP-APC and CRF250 SOSIP-PE
[3] = biological target: CRF250-SOSIP, soluble HIV-1 envelope glycoprotein trimer (SOSIP.v7 based on the CRF250 HIV-1 isolate) (HIV-1); assay: flow cytometry of Jeko-1 cells edited at the native heavy and kappa loci, double staining with CRF250 SOSIP-APC and CRF250 SOSIP-PE
[4] = biological target: CRF250-SOSIP, soluble HIV-1 envelope glycoprotein trimer (SOSIP.v7 based on the CRF250 HIV-1 isolate) (HIV-1); assay: flow cytometry of primary murine B cells edited at native loci, HDRT as dsDNA, double staining with CRF250 SOSIP-APC and CRF250 SOSIP-PE
[5] = biological target: CRF250-SOSIP, soluble HIV-1 envelope glycoprotein trimer (SOSIP.v7 based on the CRF250 HIV-1 isolate) (HIV-1); assay: flow cytometry of primary murine B cells edited at native loci, HDRT by AAV, double staining with CRF250 SOSIP-APC and CRF250 SOSIP-PE
[6] = biological target: 16055-ConM-v8.1ds SOSIP trimer (HIV-1); assay: flow cytometry, primary murine B cells edited in the HCDR3, labeled 16055-ConM-v8.1ds SOSIP against surface IgM
[7] = biological target: SOSIP; assay: flow cytometry, APC-labeled SOSIP trimer against anti-IgM
[8] = biological target: CRF250-SOSIP, soluble HIV-1 envelope glycoprotein trimer (SOSIP.v7 based on the CRF250 HIV-1 isolate) (HIV-1); assay: flow cytometry of control primary murine B cells (RNP without HDRT), double staining with CRF250 SOSIP-APC and CRF250 SOSIP-PE
[9] = biological target: CRF250-SOSIP, soluble HIV-1 envelope glycoprotein trimer (SOSIP.v7 based on the CRF250 HIV-1 isolate) (HIV-1); assay: flow cytometry of control primary murine B cells (RNP of the intron approach without HDRT), double staining with CRF250 SOSIP-APC and CRF250 SOSIP-PE
[10] = biological target: CRF250-SOSIP, soluble HIV-1 envelope glycoprotein trimer (SOSIP.v7 based on the CRF250 HIV-1 isolate) (HIV-1); assay: flow cytometry of control Jeko-1 cells (RNP without HDRT), double staining with CRF250 SOSIP-APC and CRF250 SOSIP-PE
[11] = biological target: CRF250-SOSIP, soluble HIV-1 envelope glycoprotein trimer (SOSIP.v7 based on the CRF250 HIV-1 isolate) (HIV-1); assay: flow cytometry of control primary murine B cells (RNP without HDRT), lower rows (IgK gRNAs), double staining with CRF250 SOSIP-APC and CRF250 SOSIP-PE
[12] = biological target: CRF250-SOSIP, soluble HIV-1 envelope glycoprotein trimer (SOSIP.v7 based on the CRF250 HIV-1 isolate) (HIV-1); assay: flow cytometry of control Jeko-1 cells (RNP without HDRT), double staining with CRF250 SOSIP-APC and CRF250 SOSIP-PE; remark: listed apart in the source
[13] = biological target: CRF250-SOSIP, soluble HIV-1 envelope glycoprotein trimer (SOSIP.v7 based on the CRF250 HIV-1 isolate) (HIV-1); assay: flow cytometry of control primary murine B cells (RNP without HDRT), double staining with CRF250 SOSIP-APC and CRF250 SOSIP-FITC
[14] = biological target: CRF250-SOSIP, soluble HIV-1 envelope glycoprotein trimer (SOSIP.v7 based on the CRF250 HIV-1 isolate) (HIV-1); assay: flow cytometry of control primary murine B cells (RNP without HDRT), upper row (IgH gRNAs), double staining with CRF250 SOSIP-APC and CRF250 SOSIP-PE
[15] = biological target: CRF250-SOSIP, soluble HIV-1 envelope glycoprotein trimer (SOSIP.v7 based on the CRF250 HIV-1 isolate) (HIV-1)
[16] = biological target: CRF250-SOSIP, soluble HIV-1 envelope glycoprotein trimer (SOSIP.v7 based on the CRF250 HIV-1 isolate) (HIV-1); assay: flow cytometry of Jeko-1 cells edited with gRNA targeting JH6, staining with CRF250 SOSIP-APC against anti-IgM
[17] = biological target: CRF250-SOSIP, soluble HIV-1 envelope glycoprotein trimer (SOSIP.v7 based on the CRF250 HIV-1 isolate) (HIV-1); assay: flow cytometry of Jeko-1 cells edited at the native heavy-chain locus, double staining with CRF250 SOSIP-APC and CRF250 SOSIP-PE
[18] = biological target: CRF250-SOSIP, soluble HIV-1 envelope glycoprotein trimer (SOSIP.v7 based on the CRF250 HIV-1 isolate) (HIV-1); remark: listed apart in the source

Which % of cells in the SOSIP-positive gate [1] does the source give for “10-1074 heavy and light chain variable genes introduced at the native heavy and kappa loci of Jeko-1 (antibody)” here?
Its % of cells in the SOSIP-positive gate is 11.1%.

And the % of cells in the SOSIP-positive gate [2]?
The % of cells in the SOSIP-positive gate was 3.05%.

And the % of cells in the SOSIP-positive gate [3]?
Its % of cells in the SOSIP-positive gate is 3.09%.

What does the source list for “10-1074 heavy and light chain variable genes introduced at the native heavy and kappa loci of primar (antibody)”?
% of cells in the SOSIP-positive gate [4]: 0.95%; % of cells in the SOSIP-positive gate [5]: 2.38%

For “B-cell receptors of primary murine B cells edited to express the HCDR3 of the predicted unmutated common ancestor of the VRC26 family (VRC26-UCA) (antibody)”, which % of cells in the SOSIP gate [6] is on record?
Its % of cells in the SOSIP gate is 2.26%.

How did the % of cells in the SOSIP gate [6] turn out when “B-cell receptors of primary murine B cells edited to express the PG9 HCDR3 (antibody)” was run?
Its % of cells in the SOSIP gate is 1.49%.

Which % of cells in the SOSIP gate [6] does the source give for “B-cell receptors of primary murine B cells edited to express the PG16 HCDR3 (antibody)” here?
Its % of cells in the SOSIP gate is 1.02%.

With Negative control (antibody) as the substance, how does the % of cells above the SOSIP gate line [7] read?
Its % of cells above the SOSIP gate line is 0.12%.

Which % of cells in the SOSIP-positive gate [8] does the source give for No HDRT (antibody) here?
The % of cells in the SOSIP-positive gate was 0.34%.

What about the % of cells in the SOSIP-positive gate [9] of the same substance?
Its % of cells in the SOSIP-positive gate is 0.58%.

And the % of cells in the SOSIP-positive gate [10]?
Its % of cells in the SOSIP-positive gate is 0.12%.

What about the % of cells in the SOSIP-positive gate [11] of the same substance?
The % of cells in the SOSIP-positive gate was 0.45%.

What about the % of cells in the SOSIP-positive gate [12] of the same substance?
The % of cells in the SOSIP-positive gate was 0.24%.

What about the % of cells in the SOSIP-positive gate [13] of the same substance?
The % of cells in the SOSIP-positive gate was 0.17%.

And the % of cells in the SOSIP-positive gate [14]?
The % of cells in the SOSIP-positive gate was 0.44%.

“VRC26.25 heavy-chain variable gene introduced at the native heavy-chain locus of Jeko-1 cells (B-cell receptor on the cell surface) (antibody)” was tested. Which % of cells in the SOSIP-positive gate [1] did it give?
The % of cells in the SOSIP-positive gate was 37.8%.

What about the % of cells in the SOSIP-positive gate [15] of the same substance?
The % of cells in the SOSIP-positive gate was 4.43% and 1.12%.

What about the % of cells in the SOSIP-positive gate [16] of the same substance?
Its % of cells in the SOSIP-positive gate is 5.24%.

What about the % of cells in the SOSIP-positive gate [17] of the same substance?
The % of cells in the SOSIP-positive gate was 7.12%.

What about the % of cells in the SOSIP-positive gate [2] of the same substance?
The % of cells in the SOSIP-positive gate was 7.12%.

“VRC26.25-y heavy and light chain variable genes introduced at the native loci of primary murine B cells (B-cell receptor) (antibody)” was tested. Which % of cells in the SOSIP-positive gate [4] did it give?
The % of cells in the SOSIP-positive gate was 1.78%.

What about the % of cells in the SOSIP-positive gate [5] of the same substance?
Its % of cells in the SOSIP-positive gate is 7.55%.

With “VRC26.25-y heavy chain alone introduced into primary murine B cells (B-cell receptor with endogenous murine light chains) (antibody)” as the substance, how does the % of cells in the SOSIP-positive gate [18] read?
Its % of cells in the SOSIP-positive gate is 1.59% and 1.47% and 1%.

— US20260117259A1
